# Reference: patent EP4671282A1 (Jiangsu Hengrui Pharmaceuticals Co., Ltd., dated 2025)
# Like-named read-outs stand apart in the source and are kept apart here.
# T1: human IL-23 protein (Sino Biological, CT048-H08H) (human, UniProt Q9NPF7 20-189; P29460 23-328)
# T1 construct: Detected with Anti-His-HRP in the ELISA, so it carries a His tag
# T1 sequence (looked up) 1: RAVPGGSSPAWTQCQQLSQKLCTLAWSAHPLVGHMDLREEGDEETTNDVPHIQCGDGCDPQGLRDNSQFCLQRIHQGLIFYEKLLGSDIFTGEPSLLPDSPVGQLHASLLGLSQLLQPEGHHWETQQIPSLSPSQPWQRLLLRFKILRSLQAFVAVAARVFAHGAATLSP
# T1 sequence (looked up) 2: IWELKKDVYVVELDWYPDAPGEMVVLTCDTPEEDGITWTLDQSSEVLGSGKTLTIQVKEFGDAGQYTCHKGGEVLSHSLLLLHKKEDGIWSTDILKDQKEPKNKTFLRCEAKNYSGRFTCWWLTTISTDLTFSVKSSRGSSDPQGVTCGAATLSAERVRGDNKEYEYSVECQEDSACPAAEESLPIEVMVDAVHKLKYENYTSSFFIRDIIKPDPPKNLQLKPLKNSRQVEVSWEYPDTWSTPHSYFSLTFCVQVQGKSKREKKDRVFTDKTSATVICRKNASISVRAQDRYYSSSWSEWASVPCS
# T2: IL-23 (R&D Systems, 1290-IL-010) (UniProt Q9NPF7 20-189; P29460 23-328)
# T2 sequence (looked up) 1: T1 sequence (looked up) 1
# T2 sequence (looked up) 2: T1 sequence (looked up) 2
# T3: IL-36R on human skin squamous cell line A431 (human, UniProt Q9HB29 20-575)
# T3 sequence (looked up): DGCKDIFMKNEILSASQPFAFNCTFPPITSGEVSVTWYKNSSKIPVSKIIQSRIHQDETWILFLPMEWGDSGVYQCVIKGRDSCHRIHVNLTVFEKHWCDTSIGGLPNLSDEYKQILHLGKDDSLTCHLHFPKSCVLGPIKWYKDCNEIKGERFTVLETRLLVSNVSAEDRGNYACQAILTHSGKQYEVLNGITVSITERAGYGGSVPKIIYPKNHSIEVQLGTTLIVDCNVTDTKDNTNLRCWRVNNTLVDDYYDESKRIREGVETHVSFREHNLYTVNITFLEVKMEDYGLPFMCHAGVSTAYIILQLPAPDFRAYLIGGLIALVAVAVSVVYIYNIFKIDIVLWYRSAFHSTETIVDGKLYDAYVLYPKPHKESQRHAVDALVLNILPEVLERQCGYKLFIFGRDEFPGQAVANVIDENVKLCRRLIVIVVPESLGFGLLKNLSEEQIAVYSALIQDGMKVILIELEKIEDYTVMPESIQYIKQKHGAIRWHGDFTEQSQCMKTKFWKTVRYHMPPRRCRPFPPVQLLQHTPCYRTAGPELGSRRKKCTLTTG
# T4: Human IL-36R protein (His + Avi Tag), Kactus IL1-HM4L2 (human, UniProt Q9HB29 20-335)
# T4 construct: Bought protein; also called human IL-36R antigen protein; Human IL-36R antigen
# T4 sequence: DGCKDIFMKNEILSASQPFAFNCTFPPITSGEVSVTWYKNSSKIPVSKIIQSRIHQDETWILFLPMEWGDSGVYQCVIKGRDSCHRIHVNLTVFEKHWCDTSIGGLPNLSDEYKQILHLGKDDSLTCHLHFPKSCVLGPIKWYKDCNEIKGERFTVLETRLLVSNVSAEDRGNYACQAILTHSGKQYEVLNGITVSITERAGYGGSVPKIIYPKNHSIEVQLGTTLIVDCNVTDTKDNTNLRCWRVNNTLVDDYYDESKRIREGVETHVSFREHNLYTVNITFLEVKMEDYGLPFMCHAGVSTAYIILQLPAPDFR
# T5: human IL-23 protein (ACROBiosystems, ILB-H52W5) (human, UniProt Q9NPF7 20-189; P29460 23-328)
# T5 construct: Bought protein; construct not described; also called Human IL-23 antigen; human IL-23 antigen protein
# T5 sequence (looked up) 1: T1 sequence (looked up) 1
# T5 sequence (looked up) 2: T1 sequence (looked up) 2
# T6: human IL-36R full-length protein stably expressed on CHO-K1 cells (human, UniProt Q9HB29 20-575)
# T6 construct: FlpIn CHO-K1 line expressing the full-length protein; also called human IL-36R on the surface of CHO-K1 cells; CHO-K1 cells overexpressing human IL-36R
# T6 sequence: T3 sequence (looked up)
# B1: Hu29-24 (humanized anti-IL-23 antibody) (antibody, human IgG1, kappa, L234A L235A)
# heavy: not shown
# light: DIVLTQSPDSLAVSLGQRATINCRASESVDYYGISSMHWFQQKPGQPPKLLIYRASNLESGIPARFSGSGSRTDFTLTISSLQAEDVAVYYCQQANKDPYTFGGGTKVEIKRTVAAPSVFIFPPSDEQLKSGTASVVCLLNNFYPREAKVQWKVDNALQSGNSQESVTEQDSKDSTYSLSSTLTLSKADYEKHKVYACEVTHQGLSSPVTKSFNRGEC
# B2: chimeric antibody Ch29 (antibody, human IgG1, kappa, L234A L235A, V domains shown)
# VH: QVQLKESGPGLVAPSQSLSITCTVSGFSLTSYAISWVRQPPGKGLEWLGVIWTGGGTNYNSGIKSRLTISKDNSKSQVFLNMNSLQTEDTARYYCVREGDYGSYAGAMDYWGQGTSVTVSS
# VL: DIVLTQSPASLAVSLGQRATISCRASESVDYYGISSMHWFQQKPGQPPKLLIYRASNLESGIPARFSGSGSRTDFTLTINRVETDDVATYYCQQANKDPYTFGGGTKLEIKR
# B3: IL-36R-IL-23-03 (anti-IL-36R and anti-IL-23 bispecific antibody, VHH213_Hu07 on Hu29-19, Structure B) (bispecific antibody, human IgG1, kappa, L234A L235A)
# heavy: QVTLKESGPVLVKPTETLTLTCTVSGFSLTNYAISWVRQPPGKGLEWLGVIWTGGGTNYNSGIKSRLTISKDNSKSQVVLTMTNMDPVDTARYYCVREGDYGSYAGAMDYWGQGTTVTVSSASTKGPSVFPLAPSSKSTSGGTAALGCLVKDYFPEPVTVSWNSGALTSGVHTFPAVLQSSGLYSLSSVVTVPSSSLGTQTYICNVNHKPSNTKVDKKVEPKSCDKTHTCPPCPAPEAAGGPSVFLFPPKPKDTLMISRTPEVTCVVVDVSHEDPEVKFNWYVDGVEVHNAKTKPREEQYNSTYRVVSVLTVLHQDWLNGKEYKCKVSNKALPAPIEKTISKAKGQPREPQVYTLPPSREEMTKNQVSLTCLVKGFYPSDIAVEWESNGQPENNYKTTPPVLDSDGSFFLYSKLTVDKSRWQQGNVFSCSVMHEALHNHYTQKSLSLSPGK
# light: EVQLVESGGGLVQPGGSLRLSCAASGNTFSRYCMGWFRQAPGKELVGVAAIDSDGDTSYADSVEGRFTISRDNAKNTLYLQMNSLRAEDTAVYYCAADFTPSAPPRMGSGGYCFGDYWGQGTLVTVSSGGGGSGGGGSDIVLTQSPDSLAVSLGERATINCRASESVDYYGISSMHWFQQKPGQPPKLLIYRASNLESGIPARFSGSGSRTDFTLTISSLQAEDVAVYYCQQANKDPYTFGGGTKVEIKRTVAAPSVFIFPPSDEQLKSGTASVVCLLNNFYPREAKVQWKVDNALQSGNSQESVTEQDSKDSTYSLSSTLTLSKADYEKHKVYACEVTHQGLSSPVTKSFNRGEC
# notes: VHH fused by a (G4S)2 linker to the N-terminus of the light chain; IgG1 L234A/L235A
# B4: H4H14706P2 (anti-human IL-36R antibody from Regeneron) (antibody, human IgG4 S228P, kappa, V domains shown)
# VH: EVQLVESGGGLVQPGRSLRLSCTASGFTFDDYAIHWVRQSPGKGLEWVSVISWNSDVIGYADSVKGRFTISRDNAKNSLYLQMNSLRAEDTALYYCAKGYNWNFFDYWGQGTLVTVSS
# VL: EIVLTQSPATLSLSPGERATLSCRASQSVSSYLAWYQQKPGQAPRLLIYNAANRATDIPARFSGSGSGTDFTLTISSLEPEDFAVYYCQQRSNWPLTFGGGTKVEIKR
# notes: Control, self-expressed according to WO2020018503A2
# B5: IL-36R-IL-23-04 (anti-IL-36R and anti-IL-23 bispecific antibody, VHH162_Hu11 on Hu29-19, Structure B) (bispecific antibody, human IgG1, kappa, L234A L235A)
# heavy: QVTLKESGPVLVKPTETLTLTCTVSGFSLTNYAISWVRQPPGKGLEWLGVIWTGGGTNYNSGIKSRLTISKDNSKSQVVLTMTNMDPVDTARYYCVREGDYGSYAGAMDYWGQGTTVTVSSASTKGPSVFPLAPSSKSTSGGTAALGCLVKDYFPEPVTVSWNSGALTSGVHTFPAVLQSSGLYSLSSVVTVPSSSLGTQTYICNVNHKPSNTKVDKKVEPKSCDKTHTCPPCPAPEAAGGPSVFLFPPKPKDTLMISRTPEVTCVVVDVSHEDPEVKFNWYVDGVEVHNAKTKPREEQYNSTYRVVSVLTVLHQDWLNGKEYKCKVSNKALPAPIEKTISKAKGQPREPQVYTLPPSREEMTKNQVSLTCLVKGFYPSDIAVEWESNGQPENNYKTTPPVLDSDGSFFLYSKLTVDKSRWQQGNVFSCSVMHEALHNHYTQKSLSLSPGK
# light: EVQLVESGGGLVQPGGSLRLSCAASGYSYRTQCLGWYRQAPGKQREAVATISGGGTSTYYSDSVKGRFTISQDNSKTTVYLQMNSLRAEDTAVYYCAKGLSVLGSWCHGGSSYEYTYSGQGTLVTVSSGGGGSGGGGSDIVLTQSPDSLAVSLGERATINCRASESVDYYGISSMHWFQQKPGQPPKLLIYRASNLESGIPARFSGSGSRTDFTLTISSLQAEDVAVYYCQQANKDPYTFGGGTKVEIKRTVAAPSVFIFPPSDEQLKSGTASVVCLLNNFYPREAKVQWKVDNALQSGNSQESVTEQDSKDSTYSLSSTLTLSKADYEKHKVYACEVTHQGLSSPVTKSFNRGEC
# notes: as for B3
# B6: Risankizumab (anti-IL-23 antibody control molecule) (antibody, human IgG1, kappa, L234A L235A, V domains shown)
# VH: QVQLVQSGAEVKKPGSSVKVSCKASGYTFTDQTIHWMRQAPGQGLEWIGYIYPRDDSPKYNENFKGKVTITADKSTSTAYMELSSLRSEDTAVYYCAIPDRSGYAWFIYWGQGTLVTVSS
# VL: DIQMTQSPSSLSASVGDRVTITCKASRDVAIAVAWYQQKPGKVPKLLIYWASTRHTGVPSRFSGSGSRTDFTLTISSLQPEDVADYFCHQYSSYPFTFGSGTKLEIKR
# B7: BI655130 (anti-human IL-36R antibody from Boehringer Ingelheim) (antibody, human IgG1, kappa, L234A L235A, V domains shown)
# VH: QVQLVQSGAEVKKPGASVKVSCKASGYSFTSSWIHWVKQAPGQGLEWMGEINPGNVRTNYNENFRNKVTMTVDTSISTAYMELSRLRSDDTAVYYCTVVFYGEPYFPYWGQGTLVTVSS
# VL: QIVLTQSPGTLSLSPGERATMTCTASSSVSSSYFHWYQQKPGQAPRLWIYRTSRLASGVPDRFSGSGSGTDFTLTISRLEPEDAATYYCHQFHRSPLTFGAGTKLEIKR
# notes: Control, self-expressed according to WO2013074569A1; also called B1655130
# Legend:
# [1] = biological target: T1, human IL-23 protein (Sino Biological, …); assay: ELISA, test sample coated, His-tagged IL-23 in solution
# [2] = biological target: T2, IL-23 (R&D Systems, 1290-IL-010); assay: cell-based or functional assay
# [3] = biological target: T1, human IL-23 protein (Sino Biological, …); assay: SPR (Biacore 8K), antibody captured on Protein A chip, IL-23 as analyte
# [4] = biological target: T1, human IL-23 protein (Sino Biological, …); assay: competition ELISA, IL-23R coated, biotinylated IL-23 preincubated with antibody
# [5] = biological target: T1, human IL-23 protein (Sino Biological, …); assay: cell-based or functional assay
# [6] = biological target: T1, human IL-23 protein (Sino Biological, …); assay: SPR (Biacore 8K), antibody captured on Protein A chip, IL-23 as analyte; remark: listed apart in the source
# [7] = biological target: T3, IL-36R on human skin squamous cell line …; assay: cell-based or functional assay
# [8] = biological target: T4, Human IL-36R protein (His + Avi Tag), …; assay: SPR (Biacore 8K), antibody captured by anti-human IgG Fc, IL-36R as analyte
# [9] = biological target: T5, human IL-23 protein (ACROBiosystems, …); assay: SPR (Biacore 8K), antibody captured by anti-human IgG Fc, IL-23 as analyte
# [10] = biological target: T3, IL-36R on human skin squamous cell line …; assay: cell-based or functional assay; remark: listed apart in the source
# [11] = biological target: T6, human IL-36R full-length protein stably …; assay: FACS, CHO-K1 cells overexpressing human IL-36R
# [12] = biological target: T6, human IL-36R full-length protein stably …; assay: FACS, CHO-K1 cells overexpressing human IL-36R; remark: listed apart in the source
# [13] = biological target: T6, human IL-36R full-length protein stably …; assay: FACS, CHO-K1 cells overexpressing human IL-36R; remark: listed apart in the source
# [14] = biological target: T4, Human IL-36R protein (His + Avi Tag), …; assay: SPR (Biacore 8K), antibody captured by anti-human IgG Fc, IL-36R as analyte; remark: listed apart in the source
# [15] = biological target: T5, human IL-23 protein (ACROBiosystems, …); assay: ELISA, human IL-23 coated
binder,measurement,setting,value
B1,EC50,[1],1.22 nM
same,IC50 for inhibiting IL-17 secretion,[2],0.0289 nM
same,Kd,[3],0.0149 nM
same,IC50,[4],0.488 nM
same,"Activity in inhibiting proliferation of BaF3-IL-23R cells (IC50, nM)",[5],0.178 nM
B2,EC50,[1],1.16 nM
same,IC50,[4],0.386 nM
same,"Activity in inhibiting proliferation of BaF3-IL-23R cells (IC50, nM)",[5],0.175 nM
same,Kd,[6],0.0207 nM
same,koff,[6],8.4e-05 s⁻¹
same,kon,[6],4.05e+06 M⁻¹ s⁻¹
B3,IL-36α-induced A431 IL-8 secretion IC50,[7],0.29 nM
same,Kd,[8],4.28 nM
same,koff,[8],0.000108 s⁻¹
same,kon,[8],25300 M⁻¹ s⁻¹
same,Kd,[9],0.0517 nM
same,koff,[9],4.93e-05 s⁻¹
same,kon,[9],954000 M⁻¹ s⁻¹
B4,"IL-8 secretion (A431), IL-36α, IC50",[10],0.64 nM
same,"IL-8 secretion (A431), IL-36β, IC50",[10],0.26 nM
same,"IL-8 secretion (A431), IL-36γ, IC50",[10],0.06 nM
same,IL-36α-induced A431 IL-8 secretion IC50,[7],0.15 nM
same,EC50,[11],0.37 nM
same,Maximum MFI,[11],10900 MFI
same,EC50,[12],0.64 nM
same,Maximum MFI,[12],10600 MFI
same,EC50,[13],0.51 nM
same,Maximum MFI,[13],11200 MFI
same,Kd,[14],6.4 nM
same,koff,[14],0.000364 s⁻¹
same,kon,[14],56800 M⁻¹ s⁻¹
B5,IL-36α-induced A431 IL-8 secretion IC50,[7],0.34 nM
same,Kd,[8],17.7 nM
same,koff,[8],0.000216 s⁻¹
same,kon,[8],12200 M⁻¹ s⁻¹
same,Kd,[9],0.0702 nM
same,koff,[9],6.02e-05 s⁻¹
same,kon,[9],858000 M⁻¹ s⁻¹
B6,EC50,[15],4.72 nM
same,Kd,[3],0.0651 nM
same,koff,[3],4.91e-05 s⁻¹
same,kon,[3],754000 M⁻¹ s⁻¹
same,IC50,[4],0.61 nM
B7,"IL-8 secretion (A431), IL-36α, IC50",[10],0.26 nM
same,"IL-8 secretion (A431), IL-36β, IC50",[10],0.1 nM
same,"IL-8 secretion (A431), IL-36γ, IC50",[10],0.04 nM
same,IL-36α-induced A431 IL-8 secretion IC50,[7],0.06 nM
same,EC50,[11],0.51 nM
same,Maximum MFI,[11],13400 MFI
same,EC50,[12],0.75 nM
same,Maximum MFI,[12],12900 MFI
same,EC50,[13],0.51 nM
same,Maximum MFI,[13],14200 MFI
same,Kd,[14],7.16 nM
same,koff,[14],9.54e-05 s⁻¹
same,kon,[14],13300 M⁻¹ s⁻¹
